Test results: ChEMBL document CHEMBL2073751, “Adenosine triphosphate-dependent transport of estradiol-17beta(beta-D-glucuronide) in membrane vesicles by MDR1 expressed in insect cells” (Hepatology, 1998)

System: C[C@]12CC[C@@H]3c4ccc(O)cc4CC[C@H]3[C@@H]1CC[C@@H]2O[C@@H]1O[C@H](C(=O)O)[C@@H](O)[C@H](O)[C@H]1O
Test: TP_TRANSPORTER: uptake in membrane vesicle from MDR1-expressing Sf9 cells
Type: functional, cell membranes

“ATP-dependent translocase ABCB1 (Homo sapiens)” showed a Km of 62 µM.
